Assay results reported in patent US20140370516, “DIAGNOSIS OF TUBERCULOSIS” (CSIR, published 2014).

Key:
[1] = molecular target: T1, CFP-10.ESAT-6 heterodimer (Mycobacterium tuberculosis, UniProt P9WNK5;P9WNK7 P9WNK5:2-100,P9WNK7:2-95); test: ELONA, 150 nM aptamer; binding abrogated by anti-ESAT-6 mAb; conditions: label: biotin
Experimental: (§1) The assay was modified from an ELISA protocols for determination of aptamer-protein interactions and has been termed an ELONA. Unique aptamer clones identified by sequencing were tested for their individual binding characteristic to the CFP-10.ESAT-6 heterodimer using an ELONA. Each ssDNA aptamer was prepared using the exonuclease method as described above with minor modifications, in that all aptamers were prepared with the biotinylated forward primer. For each binding assay, 96 well micro-titre plates (Corning, Adcock Ingram) were coated with the CFP-10.ESAT-6 heterodimer in a 10 mM NaHCO₃ buffer pH 8.5 (Sigma) and left overnight at 4° C. The plates were then washed with 1× phosphate buffered saline containing 0.005% Tween 20 (PBS-T) pH7 (Sigma) and blocked with a 5% fat free milk solution for 1 hour at 4° C. The plates were then washed 3 times with a 1×PBS after which 150 nM biotinylated aptamer was added and incubated for 2 hours at room temperature. This was followed by three wash steps with 1×PBS-T and the addition to HRP-conjugated streptavidin (diluted 1:10000 in 1×PBS-T) and incubated for two hours at 37° C. The plates were then washed four more times with 1×PBS-T, after which a final 3,3′,5,5′-tetramethylbenzidine (TMB) detection substrate (Separations) was added. […] The reaction was stopped with a 2 M sulphuric acid solution (Merck), resulting in a colour change from blue to yellow. The plates were read on the MultiSkan Go plate reader (ThermoScientific, AEC-Amersham) at a wavelength of 450 nm. […] Each aptamer was done in triplicate and the repeats were averaged and the standard deviation calculated. Each aptamer was tested twice in triplicate to ensure accuracy. The aptamers were then compared to the aptamer alone control using a Student t-test statistical analysis to obtain the p value for significance.
The antibody competition binding was done using the ELONA method described above with minor modifications.

ESAT-6 (monomer) = ESAT-6 (monomer) (Mycobacterium tuberculosis, UniProt P9WNK7 P9WNK7:2-95); test: ELONA; conditions: label: biotin
Experimental: as §1, with “For” for “The assay was modified from an ELISA protocols for determination of aptamer-protein interactions and has been termed an ELONA. Unique aptamer clones identified by sequencing were tested for their individual binding characteristic to the CFP-10.ESAT-6 heterodimer using an ELONA. Each ssDNA aptamer was prepared using the exonuclease method as described above with minor modifications, in that all aptamers were prepared with the biotinylated forward primer. For”
(§2) Selected ssDNA aptamers were tested for binding specificity to the ESAT-6 and CFP-10 monomers. The aptamers were tested for binding using ELONA to CFP-10, ESAT-6, CFP-10.ESAT-6 heterodimer, a CFP-10.ESAT-6 related protein in the ESX3 secretion system (EsxGH complex) and a HIV surface glycoprotein (gp120). EsxGH is an ESAT-6 family related protein that is encoded and secreted by the ESX-3 secretion system and gp120 is a HIV glycoprotein which is unrelated to the Mtb antigens.

[2] = molecular target: T2, EsxGH heterodimer (ESX-3 secretion system) (UniProt O53692;P9WNK3 O53692:2-97,P9WNK3:1-96); test: ELONA; conditions: label: biotin
T2 sequence 1: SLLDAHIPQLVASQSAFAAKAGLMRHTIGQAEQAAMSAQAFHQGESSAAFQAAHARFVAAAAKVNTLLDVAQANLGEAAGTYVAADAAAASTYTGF
T2 sequence 2: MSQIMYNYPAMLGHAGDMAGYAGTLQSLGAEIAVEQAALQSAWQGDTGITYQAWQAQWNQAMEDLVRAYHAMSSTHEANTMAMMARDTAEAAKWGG
Experimental: as §1, with “For” for “The assay was modified from an ELISA protocols for determination of aptamer-protein interactions and has been termed an ELONA. Unique aptamer clones identified by sequencing were tested for their individual binding characteristic to the CFP-10.ESAT-6 heterodimer using an ELONA. Each ssDNA aptamer was prepared using the exonuclease method as described above with minor modifications, in that all aptamers were prepared with the biotinylated forward primer. For”
as §2

CFP-10 (monomer) [3] = molecular target: T3, CFP-10 (monomer) (Mycobacterium tuberculosis, UniProt P9WNK5 P9WNK5:2-100); test: ELONA, 150 nM aptamer; SPR also run, Kd not given; conditions: label: biotin
CFP-10 (monomer) [4] = molecular target: T3, CFP-10 (monomer); test: ELONA, 150 nM aptamer; conditions: label: biotin
CFP-10 (monomer) [5] = molecular target: T3, CFP-10 (monomer); test: ELONA; affinity comparable to 90-mer; conditions: two predicted stem-loops
[6] = molecular target: T1, CFP-10.ESAT-6 heterodimer; test: ELONA; slightly higher affinity than 90-mer (P<0.05); conditions: two predicted stem-loops
CFP-10 (monomer) [7] = molecular target: T3, CFP-10 (monomer); test: SPR; CFP-10 immobilised on CM5 chip; conditions: label: biotin
Experimental: (§3) FIG. 7 illustrates kinetic studies of 5 of the best aptamers. CFP-10 attached to a CM5 chip was used to capture the respective anti-CFP-10.ESAT-6 aptamers. The respective aptamers were injected at different concentrations at a flow rate of 10 μl/min for 5 minutes and allowed to dissociate for 10 minutes;
(§4) To determine the binding affinity of aptamers to the M.tb antigens, all four flow cells on a CM5 chip (BIAcore, Separations Scientific) were activated with EDC:NHS (BIAcore, Separations Scientific). CFP-10 was bound to three of the four flow cells by injecting 50 μl of 50 μg/ml CFP-10 over them. Ethanolamine (BIAcore, Separations Scientific) was then injected over all four flow cells to quench any remaining active sites. Partially bound or unbound protein was removed by a wash with 10 μl of a 10 mM NaOH solution. Different concentrations of the respective aptamers (0 nM, 31 nM, 62 nM, 125 nM, 250 nM, and 500 nM) were randomly injected over all four flow cells at a flow rate of 10 μl/min for 5 minutes. The respective aptamers, were then allowed to dissociate for 10 minutes. […] The evaluation was done using BiaEvaluation Software (BIAcore) to determine the KD values for each flow cell. The average dissociation constant was then determined.

CFP-10 (monomer) [8] = molecular target: T3, CFP-10 (monomer); test: SPR; CFP-10 immobilised on CM5 chip, BIAcore 3000; conditions: label: biotin; two predicted stem-loops
Experimental: as §3, §4

CFP-10 (monomer) [9] = molecular target: T3, CFP-10 (monomer); test: SPR; CFP-10 immobilised on CM5 chip; also bound in ELONA; conditions: label: biotin; three predicted stem-loops
Experimental: as §3, §4

B1: CSIR 2.15 (ssDNA)
DNA: GCCTGTTGTGAGCCTCCTAACTAATGTGGATGCTGCATCGTTAGTATTTCTAGCATGCAATATAGGCATGCATGCTTATTCTTGTCTCCC
binding result [1]: binds | binding result (ESAT-6 (monomer)): no binding | binding result [2]: no binding | binding result (CFP-10 (monomer) [3]): binds

B2: CSIR 2.21 (ssDNA)
DNA: GCCTGTTGTGAGCCTCCTAACACACACGTAGCGCCTTGTTGAAGTATACTCAAAGCATTCTCCACGCGGGCATGCTTATTCTTGTCTCCC
binding result (CFP-10 (monomer) [4]): binds | binding result [1]: binds | binding result (ESAT-6 (monomer)): no binding | binding result [2]: no binding

B3: CSIR 2.19 truncated (77-mer) (ssDNA)
DNA: GCCTGTTGTGAGCCTCCTAACTTCCAATAACGATACTTAAACCTGGTCTTTGCCAGTCAATGATAGCATCATGCTTA
modifications: [none (12 nt removed from the 3' end, parent positions 1-77)]
binding result (CFP-10 (monomer) [5]): binds | binding result [6]: binds

B4: CSIR 2.2 (ssDNA)
DNA: GCCTGTTGTGAGCCTCCTAACCCGTCTAACGAGATTGGGTCTTCATATGGCTCGAAGCGCGCGGTCAGTTCATGCTTATTCTTGTCTCCC
binding result (ESAT-6 (monomer)): no binding | binding result [2]: no binding | Kd (CFP-10 (monomer) [7]): 21.5 nM

B5: CSIR 2.19 (ssDNA)
DNA: GCCTGTTGTGAGCCTCCTAACTTCCAATAACGATACTTAAACCTGGTCTTTGCCAGTCAATGATAGCATCATGCTTATTCTTGTCTCCC
Kd (CFP-10 (monomer) [8]): 1.6 nM | binding result (ESAT-6 (monomer); two predicted stem-loops): no binding | binding result ([2]; two predicted stem-loops): no binding

B6: CSIR 2.9 (ssDNA)
DNA: GCCTGTTGTGAGCCTCCTAACTCCGGTCTTCAACATGTCCAATCGAACTTCGGCGGAAATCCTTTACCTGCATGCTTATTCTTGTCTCCC
binding result (CFP-10 (monomer) [4]): binds | binding result [1]: binds | binding result (ESAT-6 (monomer)): no binding | binding result [2]: no binding

B7: CSIR 2.11 (ssDNA)
DNA: GCCTGTTGTGAGCCTCCTAACCCCATCTTATACGTATATGGACTCATCTCGACCCCCGATAGGCTTGGTACATGCTTATTCTTGTCTCCC
binding result (ESAT-6 (monomer); three predicted stem-loops): no binding | binding result ([2]; three predicted stem-loops): no binding | Kd (CFP-10 (monomer) [9]): 8 nM
